Test results from US20180273622A1 (APTEVO RESEARCH AND DEVELOPMENT, published 2018).
Substitutions are numbered along the chain they refer to.

B1: Fc H10L5 (TSC324) (Fc fusion)
chain: EPKSSDKTHTCPPCPAPEAAGAPSVFLFPPKPKDTLMISRTPEVTCVVVDVSHEDPEVKFNWYVDGVEVHNAKTKPREEQYNSTYRVVSVLTVLHQDWLNGKAYACAVSNKALPAPIEKTISKAKGQPREPQVYTLPPSRDELTKNQVSLTCLVKGFYPSDIAVEWESNGQPENNYKTTPPVLDSDGSFFLYSKLTVDKSRWQQGNVFSCSVMHEALHNHYTQKSLSLSPGQRHNNSSLNTGTQMAGHSPNSQVQLVQSGAEVKKPGSSVKVSCKASGGTFSRSTMHWVRQAPGQGLEWMGYINPSSAYTNYNQKFKDRVTITADKSTSTAYMELSSLRSEDTAVYYCARPQVHYDYNGFPYWGQGTLVTVSSGGGGSGGGGSGGGGSGGGGSDIQMTQSPSSLSASVGDRVTITCSASSSVSYMNWYQQKPGKAPKLLIYDSSKLASGVPSRFSGSGSGTDFTLTISSLQPEDFATYYCQQWSRNPPTFGGGTKVEIKRSSS
notes: Fc anti-CD3 scFv format with H75 linker; The entry is the mature protein
B2: Fc H10L6 (TSC340) (Fc fusion)
chain: B1 chain with L438R, L439W
notes: Fc anti-CD3 scFv format; The entry is the mature protein
B3: Fc H10L8 (TSC342) (Fc fusion)
chain: B1 chain with S403T, L438R, L439W, D462E, E473D
notes: as for B2
B4: Fc H10L7 (TSC341) (Fc fusion)
chain: EPKSSDKTHTCPPCPAPEAAGAPSVFLFPPKPKDTLMISRTPEVTCVVVDVSHEDPEVKFNWYVDGVEVHNAKTKPREEQYNSTYRVVSVLTVLHQDWLNGKAYACAVSNKALPAPIEKTISKAKGQPREPQVYTLPPSRDELTKNQVSLTCLVKGFYPSDIAVEWESNGQPENNYKTTPPVLDSDGSFFLYSKLTVDKSRWQQGNVFSCSVMHEALHNHYTQKSLSLSPGQRHNNSSLNTGTQMAGHSPNSQVQLVQSGAEVKKPGSSVKVSCKASGGTFSRSTMHWVRQAPGQGLEWMGYINPSSAYTNYNQKFKDRVTITADKSTSTAYMELSSLRSEDTAVYYCARPQVHYDYNGFPYWGQGTLVTVSSGGGGSGGGGSGGGGSGGGGSEIVLTQSPATLSLSPGERATLSCSASSSVSYMNWYQQKPGLAPRRWIYDSSKLASGIPDRFSGSGSGTDFTLTISRLEPEDFAVYYCQQWSRNPPTFGGGTKVEIKRSSS
notes: as for B2

Tests used:
human CD3 [1] = target: T1, human CD3 (human, UniProt P07766 23-207; P09693 23-182; P04234 22-171; P20963 22-164); assay: flow cytometry on Jurkat T-cells, anti-human IgG detection
T1 construct: whole, on cells; It was presented on the CD3+ Jurkat T-cell line, on a Jurkat subclone with higher CD3 expression, or on human T-cells; also called CD3 on Jurkat T-cells; CD3 on human T-cells
T1 sequence (P07766 23-207, chain 1 of 4): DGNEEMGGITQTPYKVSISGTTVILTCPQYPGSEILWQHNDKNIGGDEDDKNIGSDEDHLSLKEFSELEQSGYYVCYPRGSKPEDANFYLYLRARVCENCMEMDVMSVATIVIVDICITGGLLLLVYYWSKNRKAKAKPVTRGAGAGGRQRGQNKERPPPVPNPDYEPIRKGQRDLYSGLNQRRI
T1 sequence (P09693 23-182, chain 2 of 4): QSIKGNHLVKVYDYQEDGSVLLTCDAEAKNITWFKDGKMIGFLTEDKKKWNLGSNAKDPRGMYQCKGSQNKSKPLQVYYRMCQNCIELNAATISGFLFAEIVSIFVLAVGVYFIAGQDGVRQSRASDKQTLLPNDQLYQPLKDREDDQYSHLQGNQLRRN
T1 sequence (P04234 22-171, chain 3 of 4): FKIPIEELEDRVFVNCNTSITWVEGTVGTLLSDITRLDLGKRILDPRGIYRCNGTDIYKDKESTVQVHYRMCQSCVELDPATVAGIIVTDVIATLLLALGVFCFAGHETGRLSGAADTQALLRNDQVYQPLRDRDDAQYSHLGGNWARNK
T1 sequence (P20963 22-164, chain 4 of 4): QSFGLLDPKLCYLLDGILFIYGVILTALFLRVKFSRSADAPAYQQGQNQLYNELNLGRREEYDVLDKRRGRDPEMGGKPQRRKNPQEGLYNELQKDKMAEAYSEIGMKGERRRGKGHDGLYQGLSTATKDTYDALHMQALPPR
Procedure: Binding studies were performed by standard flow cytometry-based staining procedures using the CD3⁺ Jurkat T-cell line. All labeling and washes were performed in U-bottom 96-well plates in saline buffer with 3% BSA and 2 mM EDTA. Jurkat cells were plated at 200,000 cells per well and incubated with a range of 0.1 nM to 200 nM concentrations of test molecules in 50 μL volume/well, for 30 minutes on ice. Cells were washed three times then incubated for another 30 minutes on ice with fluorescently-labeled minimum cross reactive secondary polyclonal antibody, F(ab′)² goat anti-human IgG, (Jackson ImmunoResearch Laboratories) and the viability dye 7-AAD. The cells were then washed twice, and the samples acquired in a BD LSRII flow cytometer. The sample files were analyzed using FlowJo software; the mean fluorescence intensity (MFI) of the live population of Jurkat cells in each well was calculated after gating on live cells (forward vs. side scatter, then 7-AAD cells).

human CD3 [2] = target: T1, human CD3; assay: flow cytometry on a Jurkat subclone with higher CD3 expression (FIG. 2)

Row | EC50 (human CD3 [1]) | fold increase in the EC50 of binding compared to TSC312 (human CD3 [1]) | fold higher EC50 than TSC312 (human CD3 [2]) | Binder
1 | 3.6 nM | 2 fold |  | B1
2 |  |  | 2 fold | B2
3 |  |  | 2 fold | B3
4 |  |  | 2 fold | B4
